Results taken from article PMC11211510, “Sequence-specific dynamic DNA bending explains mitochondrial TFAM’s dual role in DNA packaging and transcription initiation”.

T1: TFAM (UniProt Q00059 43-245)
T1 sequence: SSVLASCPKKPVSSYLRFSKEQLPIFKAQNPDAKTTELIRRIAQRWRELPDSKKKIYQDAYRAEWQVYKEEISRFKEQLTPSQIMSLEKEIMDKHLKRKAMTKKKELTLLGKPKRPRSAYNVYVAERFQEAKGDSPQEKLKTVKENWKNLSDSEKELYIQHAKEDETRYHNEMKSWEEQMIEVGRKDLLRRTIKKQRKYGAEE

T2: TFAM-ΔC26 (C-tail deletion) (UniProt Q00059 43-220)
T2 sequence: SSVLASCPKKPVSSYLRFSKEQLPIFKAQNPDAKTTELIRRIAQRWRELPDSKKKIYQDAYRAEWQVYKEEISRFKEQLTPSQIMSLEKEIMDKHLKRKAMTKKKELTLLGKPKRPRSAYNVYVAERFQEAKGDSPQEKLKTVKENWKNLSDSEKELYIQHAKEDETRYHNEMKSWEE


Experiments:
[1] = biological target: T1, TFAM; assay: smFRET; bending equilibrium K(F/P) 1.70 ± 0.74; 50 mM Tris acetate pH 7.5, 100 mM Na glutamate, 50 mM NaCl, 10 mM Mg acetate, 0.5 mM TCEP, 0.01% Tween 20, 0.1 mg/ml BSA, 25 °C; 5 nM DNA, 0-75 nM TFAM; conditions: protein: recombinant; tags: N-terminal 6xHis, TEV-cleaved; label: Atto565 at 5' non-template, Atto647N at 5' template; blunt
[2] = biological target: T1, TFAM; assay: smFRET; bending equilibrium K(F/P) 24.6 ± 7.6; 50 mM Tris acetate pH 7.5, 100 mM Na glutamate, 50 mM NaCl, 10 mM Mg acetate, 0.5 mM TCEP, 0.01% Tween 20, 0.1 mg/ml BSA, 25 °C; 5 nM DNA, 0-75 nM TFAM; conditions: protein: recombinant; tags: N-terminal 6xHis, TEV-cleaved; label: Atto565 at 5' non-template, Atto647N at 5' template; blunt
[3] = biological target: T1, TFAM; assay: fluorescence anisotropy; 10 mM Mg acetate; apparent Kd; 50 mM Tris acetate pH 7.5, 100 mM Na glutamate, 50 mM NaCl, 10 mM Mg acetate, 0.5 mM TCEP, 0.01% Tween 20, 0.1 mg/ml BSA, 25 °C; 5 nM DNA, 0-75 nM TFAM; conditions: protein: recombinant; tags: N-terminal 6xHis, TEV-cleaved; label: fluorescein (FITC) at 3' end of template strand; blunt
[4] = biological target: T2, TFAM-ΔC26 (C-tail deletion); assay: fluorescence anisotropy; 10 mM Mg acetate; 50 mM Tris acetate pH 7.5, 100 mM Na glutamate, 50 mM NaCl, 10 mM Mg acetate, 0.5 mM TCEP, 0.01% Tween 20, 0.1 mg/ml BSA, 25 °C; 5 nM DNA, 0-75 nM TFAM; conditions: protein: recombinant; tags: SUMO fusion, cleaved; label: fluorescein (FITC) at 3' end of template strand; blunt
[5] = biological target: T1, TFAM; assay: smFRET; bending equilibrium K(F/P) 0.59 ± 0.24; 50 mM Tris acetate pH 7.5, 100 mM Na glutamate, 50 mM NaCl, 10 mM Mg acetate, 0.5 mM TCEP, 0.01% Tween 20, 0.1 mg/ml BSA, 25 °C; 5 nM DNA, 0-75 nM TFAM; conditions: protein: recombinant; tags: N-terminal 6xHis, TEV-cleaved; label: Atto565 at 5' non-template, Atto647N at 5' template; blunt

Binder	Kd [3] [nM]	Kd [4] [nM]	other results
HSP, Atto565/Atto647N (dsDNA, biotin-2xPEG18 at 3' end of template) DNA 1: CACACCGCTGCTAACCCCATACCCCGAACC DNA 2: GGTTCGGGGTATGGGGTTAGCAGCGGTGTG			binding result [1]: binds
LSP, Atto565/Atto647N (dsDNA, biotin-2xPEG18 at 3' end of template) DNA 1: TGTGTTAGTTGGGGGGTGACTGTTAAAAGT DNA 2: ACTTTTAACAGTCACCCCCCAACTAACACA			binding result [2]: binds
LSP (-41 to -12), fluorescein (dsDNA) DNA 1: TGTGTTAGTTGGGGGGTGACTGTTAAAAGT DNA 2: ACTTTTAACAGTCACCCCCCAACTAACACA	~9		
NS (non-specific), fluorescein (dsDNA) DNA 1: TAGCAGGAGCAGGAACAGGATGAACAAGCA DNA 2: TGCTTGTTCATCCTGTTCCTGCTCCTGCTA	~44	~100	
NS, Atto565/Atto647N (dsDNA, biotin-2xPEG18 at 3' end of template) DNA 1: TAGCAGGAGCAGGAACAGGATGAACAAGCA DNA 2: TGCTTGTTCATCCTGTTCCTGCTCCTGCTA			binding result [5]: binds
HSP (-41 to -12), fluorescein (dsDNA) DNA 1: CACACCGCTGCTAACCCCATACCCCGAACC DNA 2: GGTTCGGGGTATGGGGTTAGCAGCGGTGTG	~43	~100	
